Assay results: the Human Domainome abundance scans (Beltran et al. 2025)
± gives the uncertainty stated by the source.

B1: Far upstream element-binding protein 2, residues 142 to 214; numbered along this chain, Q92945 (parent)
chain: RTSMTEEYRVPDGMVGLIIGRGGEQINKIQQDSGCKVQISPDSGGLPERSVSLTGAPESVQKAKMMLDDIVSR

Variants of: B1
Experiment: abundance fitness (aPCA) (normalised: wild type 0, dead -1); higher = more abundant; growth selection in yeast, the domain comes from the species named
Conditions: Homo sapiens

Variant | abundance fitness
V10M | 0.041 ± 0.058
R73A | 0.034 ± 0.057
R73H | -0.099 ± 0.15
R73C | 0.108 ± 0.083
R73F | -0.162 ± 0.19
R73G | 0.177 ± 0.043
R73I | 0.027 ± 0.1
D69S | -0.122 ± 0.049
D69M | -0.13 ± 0.064
D69T | -0.103 ± 0.051
D69C | -0.133 ± 0.071
E24D | -0.104 ± 0.067
E24R | -0.03 ± 0.04
E24W | 0.666 ± 0.048
E24A | -0.112 ± 0.045
E24L | -0.199 ± 0.047
A63M | -1.24 ± 0.13
V71N | -0.461 ± 0.1
V71T | -0.032 ± 0.051
V71W | -0.211 ± 0.051
V71I | -0.057 ± 0.079
V71K | -0.174 ± 0.057
V71F | -0.157 ± 0.11
G16D | 0.136 ± 0.064

Variant | abundance fitness
G16R | -0.078 ± 0.038
G16E | 0.049 ± 0.053
G16K | -0.068 ± 0.056
G16I | -0.994 ± 0.12
P41M | -0.09 ± 0.067
P41A | 0.007 ± 0.047
P41I | -0.024 ± 0.094
P41C | -0.017 ± 0.084
P41E | -0.04 ± 0.055
S50K | 0.044 ± 0.069
S50M | -0.125 ± 0.064
S50Y | -0.137 ± 0.085
S50Q | -0.139 ± 0.057
S50T | 0.008 ± 0.055
S50W | -0.118 ± 0.061
S50I | 0.126 ± 0.11
I26G | -0.641 ± 0.04
I26S | -0.693 ± 0.055
I26Q | -0.35 ± 0.06
I26H | -0.485 ± 0.091
I26E | -0.685 ± 0.061
M66G | -0.652 ± 0.047
M66E | -0.514 ± 0.056
M66T | -0.661 ± 0.059

Variant | abundance fitness
M66L | -0.041 ± 0.046
M66Q | -0.301 ± 0.063
M66V | -0.456 ± 0.051
S52A | -0.094 ± 0.044
S52V | 0.041 ± 0.041
S52H | 0.043 ± 0.075
S52C | 0.027 ± 0.058
I70G | -0.497 ± 0.045
I70W | -0.319 ± 0.052
I70T | -0.344 ± 0.052
I70A | -0.295 ± 0.046
I70Y | -0.153 ± 0.081
I70F | -0.235 ± 0.076
I70R | -0.568 ± 0.043
G44C | -0.105 ± 0.068
G44A | -0.051 ± 0.045
G44Y | -0.084 ± 0.12
G44P | -0.137 ± 0.054
G44Q | 0.034 ± 0.062
G44K | 0.019 ± 0.071
I19A | -0.096 ± 0.048
I19D | -0.179 ± 0.076
I19Q | -0.105 ± 0.061
I19M | 0.096 ± 0.068

Variant | abundance fitness
E48L | -0.12 ± 0.041
E48D | -0.033 ± 0.069
E48V | -0.103 ± 0.047
E48K | -0.158 ± 0.071
E48N | -0.161 ± 0.12
E48C | -0.169 ± 0.069
Q30F | -0.252 ± 0.11
Q30P | -0.809 ± 0.063
Q30W | -0.507 ± 0.057
Q30D | -1.02 ± 0.095
Q30Y | -0.866 ± 0.28
S43Y | -0.189 ± 0.081
S43G | -0.034 ± 0.041
S43M | -0.101 ± 0.07
E6D | -0.171 ± 0.053
E6S | -0.017 ± 0.041
E6R | -0.068 ± 0.035
E6K | -0.027 ± 0.05
E6M | 0.187 ± 0.052
E6I | -0.086 ± 0.069
E6A | -0.021 ± 0.039
E6H | -0.062 ± 0.065
E6W | -0.086 ± 0.046
E6V | 0.097 ± 0.039

Variant | abundance fitness
Q31M | -0.073 ± 0.071
Q31P | -0.98 ± 0.065
Q31K | -0.137 ± 0.08
Q31R | -0.069 ± 0.039
Q31S | -0.136 ± 0.048
D12N | -0.14 ± 0.079
D12E | -0.003 ± 0.055
D32S | -0.047 ± 0.055
D32T | -0.074 ± 0.061
D32V | -0.04 ± 0.052
D32I | -0.12 ± 0.15
D32H | -0.072 ± 0.088
V51T | -0.704 ± 0.068
V51L | 0.019 ± 0.052
V51Q | -0.947 ± 0.11
V51P | -0.847 ± 0.08
V51W | -0.487 ± 0.055
V51S | -0.837 ± 0.067
V51M | -0.122 ± 0.065
D42E | -0.007 ± 0.053
D42V | -0.125 ± 0.044
D42F | -0.163 ± 0.085
K36A | -0.082 ± 0.045
K36E | -0.036 ± 0.051

Variant | abundance fitness
K36R | -0.058 ± 0.04
K36G | -0.431 ± 0.043
I18C | -0.595 ± 0.066
I18A | -0.276 ± 0.042
G45T | -0.079 ± 0.053
G45A | -0.211 ± 0.05
G45M | -0.208 ± 0.063
S59F | -0.528 ± 0.1
S59K | -0.216 ± 0.068
S59W | -0.968 ± 0.084
Q25S | -0.067 ± 0.05
Q25L | -0.039 ± 0.046
Q25A | -0.004 ± 0.043
A56L | -0.1 ± 0.048
A56M | -0.154 ± 0.08
A56E | -0.003 ± 0.058
A56K | -0.153 ± 0.075
A56F | -0.315 ± 0.084
E7I | -0.028 ± 0.065
E7V | -0.194 ± 0.04
E7A | -0.136 ± 0.039
E7S | -0.088 ± 0.04
E7W | -0.1 ± 0.043
E7T | 0.046 ± 0.045

Variant | abundance fitness
E7D | -0.036 ± 0.057
I29W | -0.981 ± 0.063
I29S | -0.819 ± 0.056
I29H | -0.984 ± 0.11
I29Q | -0.841 ± 0.071
I29M | -0.524 ± 0.061
K64M | -0.457 ± 0.062
K64N | -0.703 ± 0.08
K64S | -0.553 ± 0.049
K64H | -0.442 ± 0.079
G34Q | -0.247 ± 0.07
G34R | -0.307 ± 0.043
G34T | -0.537 ± 0.07
G34A | -0.365 ± 0.049
G34P | -1.16 ± 0.13
G34K | -0.319 ± 0.068
G34E | -0.243 ± 0.056
V37G | -0.905 ± 0.045
V37S | -0.815 ± 0.057
V37K | -0.965 ± 0.089
V37H | -0.962 ± 0.12
G20L | -1.07 ± 0.059
G20R | -0.428 ± 0.042
